Assay results from patent USRE47150 (Bayer, dated 2018).

T1: mouse tissue factor pathway inhibitor (TFPI) (mouse, UniProt O54819 29-289, limits assumed)
T1 construct: bought; also called mTFPI; murine TFPI
T1 sequence (looked up): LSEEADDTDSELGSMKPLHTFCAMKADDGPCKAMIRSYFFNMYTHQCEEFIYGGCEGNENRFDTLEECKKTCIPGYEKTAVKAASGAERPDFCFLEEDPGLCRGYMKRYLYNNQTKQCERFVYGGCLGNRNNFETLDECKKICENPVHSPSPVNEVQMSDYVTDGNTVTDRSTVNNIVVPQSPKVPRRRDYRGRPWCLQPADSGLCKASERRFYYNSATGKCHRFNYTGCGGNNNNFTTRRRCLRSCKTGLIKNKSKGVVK

T2: human tissue factor pathway inhibitor (TFPI) (human, UniProt P10646 29-304, limits assumed)
T2 construct: bought; also called hTFPI; human TFPI
T2 sequence (looked up): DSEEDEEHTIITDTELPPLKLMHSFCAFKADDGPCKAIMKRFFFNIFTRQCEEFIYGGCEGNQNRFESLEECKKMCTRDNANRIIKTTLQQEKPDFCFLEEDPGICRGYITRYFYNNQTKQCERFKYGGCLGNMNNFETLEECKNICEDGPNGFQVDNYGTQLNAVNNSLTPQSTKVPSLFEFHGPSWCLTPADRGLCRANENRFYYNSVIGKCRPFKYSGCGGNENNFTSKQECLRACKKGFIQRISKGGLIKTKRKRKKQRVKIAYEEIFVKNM


What was measured:
[1] = target: T1, mouse tissue factor pathway inhibitor …; test: competitive ELISA
[2] = target: T2, human tissue factor pathway inhibitor …; test: competitive ELISA
[3] = target: T2, human tissue factor pathway inhibitor …; test: competitive ELISA; remark: listed apart in the source
[4] = target: T1, mouse tissue factor pathway inhibitor …; test: equilibrium ELISA

Binder | variant/HC_K99L [1] [ratio] | variant/HC_K99L [2] [ratio] | variant/wild-type [3] [ratio] | variant/wild-type [4] [ratio]
2A8 HC Q1E+R30S+S35D+S55R+S56G+K99L/LC D1S+I2Y+A13S+S21T+R28P+Y48F+N51V+E80M+S89A+D91W+D92S+G93S+V94T (Fab, V domains shown) VH: EVQLVESGGGLVQPGGSLRLSCAASGFTFSSYGMDWVRQAPGKGLEWVSSIRGSRGSTYYADSVKGRFTISRDNSKNTLYLQMNSLRAEDTAVYYCARLYRYWFDYWGQGTLVTVSS VL: SYELTQPPSVSVSPGQTARITCSGDNLPNYYAHWYQQKPGQAPVVVIFYDVNRPSGIPERFSGSNSGNTATLTISGTQAMDEADYYCQAWWSSTPVFGGGTKLTVLG | 12.3 | 18.8 | – | –
2A8 HC S31V+I51D+S55R+K99V/LC D1S+I2Y+A13S+S21T+R28P+N29K+Y48F+E80M+D91L+D92S+V94T+V96W (Fab, V domains shown) VH: QVQLVESGGGLVQPGGSLRLSCAASGFTFRVYGMSWVRQAPGKGLEWVSSDRGSRSSTYYADSVKGRFTISRDNSKNTLYLQMNSLRAEDTAVYYCARVYRYWFDYWGQGTLVTVSS VL: SYELTQPPSVSVSPGQTARITCSGDNLPKYYAHWYQQKPGQAPVVVIFYDNNRPSGIPERFSGSNSGNTATLTISGTQAMDEADYYCQSWLSGTPWFGGGTKLTVLG | 15.4 | 18 | – | –
2A8 HC Q1E+S31V+S50A+I51D+S55R+S56G+K99V/LC D1S+I2Y+A13S+S21T+R28P+N29K+Y48F+E80M+D91L+D92S+V94T+V96W (Fab, V domains shown) VH: EVQLVESGGGLVQPGGSLRLSCAASGFTFRVYGMSWVRQAPGKGLEWVSADRGSRGSTYYADSVKGRFTISRDNSKNTLYLQMNSLRAEDTAVYYCARVYRYWFDYWGQGTLVTVSS VL: SYELTQPPSVSVSPGQTARITCSGDNLPKYYAHWYQQKPGQAPVVVIFYDNNRPSGIPERFSGSNSGNTATLTISGTQAMDEADYYCQSWLSGTPWFGGGTKLTVLG | 5.9 | 9.8 | – | –
2A8 HC S31V+I51D+S55R+K99V/LC D1S+I2Y+A13S+S21T+R28P+N29K+Y48F+Y49R+N51S+E80M+D91L+D92S+V94T+V96W (Fab, V domains shown) VH: QVQLVESGGGLVQPGGSLRLSCAASGFTFRVYGMSWVRQAPGKGLEWVSSDRGSRSSTYYADSVKGRFTISRDNSKNTLYLQMNSLRAEDTAVYYCARVYRYWFDYWGQGTLVTVSS VL: SYELTQPPSVSVSPGQTARITCSGDNLPKYYAHWYQQKPGQAPVVVIFRDSNRPSGIPERFSGSNSGNTATLTISGTQAMDEADYYCQSWLSGTPWFGGGTKLTVLG | 2.4 | 2.2 | – | –
2A8 HC Q1E+S31V+S50A+I51D+S55R+S56G+K99V/LC D1S+I2Y+A13S+S21T+R28P+N29K+Y48F+N51S+E80M+D91L+D92S+V94T+V96W (Fab, V domains shown) VH: EVQLVESGGGLVQPGGSLRLSCAASGFTFRVYGMSWVRQAPGKGLEWVSADRGSRGSTYYADSVKGRFTISRDNSKNTLYLQMNSLRAEDTAVYYCARVYRYWFDYWGQGTLVTVSS VL: SYELTQPPSVSVSPGQTARITCSGDNLPKYYAHWYQQKPGQAPVVVIFYDSNRPSGIPERFSGSNSGNTATLTISGTQAMDEADYYCQSWLSGTPWFGGGTKLTVLG | 7.1 | 11.4 | – | –
2A8 HC Q1E+R30S+S35D+S55R+S56G+K99L/LC D1S+I2Y+A13S+S21T+R28P+Y48F+N51V+E80M+D91W (Fab, V domains shown) VH: EVQLVESGGGLVQPGGSLRLSCAASGFTFSSYGMDWVRQAPGKGLEWVSSIRGSRGSTYYADSVKGRFTISRDNSKNTLYLQMNSLRAEDTAVYYCARLYRYWFDYWGQGTLVTVSS VL: SYELTQPPSVSVSPGQTARITCSGDNLPNYYAHWYQQKPGQAPVVVIFYDVNRPSGIPERFSGSNSGNTATLTISGTQAMDEADYYCQSWWDGVPVFGGGTKLTVLG | 15.1 | 18.7 | – | –
2A8 HC Q1E+R30S+S35D+S55R+S56G+K99L/LC D1S+I2Y+A13S+S21T+R28P+N29K+Y48F+N51V+E80M+D91W (Fab, V domains shown) VH: EVQLVESGGGLVQPGGSLRLSCAASGFTFSSYGMDWVRQAPGKGLEWVSSIRGSRGSTYYADSVKGRFTISRDNSKNTLYLQMNSLRAEDTAVYYCARLYRYWFDYWGQGTLVTVSS VL: SYELTQPPSVSVSPGQTARITCSGDNLPKYYAHWYQQKPGQAPVVVIFYDVNRPSGIPERFSGSNSGNTATLTISGTQAMDEADYYCQSWWDGVPVFGGGTKLTVLG | 15.5 | 19.8 | – | –
4B7 HC_D62I (Fab, V domains shown) VH: QVQLQQSGPGLVKPSQTLSLTCAISGDSVSSNSAAWSWIRQSPGRGLEWLGIIYKRSKWYNIYAVSVKSRITINPDTSKNQFSLQLNSVTPEDTAVYYCARWHSDKHWGFDYWGQGTLVTVSS VL: DIVMTQSPLSLPVTPGEPASISCRSSQSLVFSDGNTYLNWYLQKPGQSPQLLIYKGSNRASGVPDRFSGSGSGTDFTLKISRVEAEDVGVYYCQQYDSYPLTFGQGTKVEIKR | – | – | 9.8 | 44.4
4B7 HC_D62N (Fab, V domains shown) VH: QVQLQQSGPGLVKPSQTLSLTCAISGDSVSSNSAAWSWIRQSPGRGLEWLGIIYKRSKWYNNYAVSVKSRITINPDTSKNQFSLQLNSVTPEDTAVYYCARWHSDKHWGFDYWGQGTLVTVSS VL: DIVMTQSPLSLPVTPGEPASISCRSSQSLVFSDGNTYLNWYLQKPGQSPQLLIYKGSNRASGVPDRFSGSGSGTDFTLKISRVEAEDVGVYYCQQYDSYPLTFGQGTKVEIKR | – | – | 52.3 | 146
4B7 HC_D62Q (Fab, V domains shown) VH: QVQLQQSGPGLVKPSQTLSLTCAISGDSVSSNSAAWSWIRQSPGRGLEWLGIIYKRSKWYNQYAVSVKSRITINPDTSKNQFSLQLNSVTPEDTAVYYCARWHSDKHWGFDYWGQGTLVTVSS VL: DIVMTQSPLSLPVTPGEPASISCRSSQSLVFSDGNTYLNWYLQKPGQSPQLLIYKGSNRASGVPDRFSGSGSGTDFTLKISRVEAEDVGVYYCQQYDSYPLTFGQGTKVEIKR | – | – | 20.6 | 142
4B7 HC_D62V (Fab, V domains shown) VH: QVQLQQSGPGLVKPSQTLSLTCAISGDSVSSNSAAWSWIRQSPGRGLEWLGIIYKRSKWYNVYAVSVKSRITINPDTSKNQFSLQLNSVTPEDTAVYYCARWHSDKHWGFDYWGQGTLVTVSS VL: DIVMTQSPLSLPVTPGEPASISCRSSQSLVFSDGNTYLNWYLQKPGQSPQLLIYKGSNRASGVPDRFSGSGSGTDFTLKISRVEAEDVGVYYCQQYDSYPLTFGQGTKVEIKR | – | – | 31.9 | 95
4B7 HC_D62L (Fab, V domains shown) VH: QVQLQQSGPGLVKPSQTLSLTCAISGDSVSSNSAAWSWIRQSPGRGLEWLGIIYKRSKWYNLYAVSVKSRITINPDTSKNQFSLQLNSVTPEDTAVYYCARWHSDKHWGFDYWGQGTLVTVSS VL: DIVMTQSPLSLPVTPGEPASISCRSSQSLVFSDGNTYLNWYLQKPGQSPQLLIYKGSNRASGVPDRFSGSGSGTDFTLKISRVEAEDVGVYYCQQYDSYPLTFGQGTKVEIKR | – | – | 6.8 | 22.9
4B7 HC_D62S (Fab, V domains shown) VH: QVQLQQSGPGLVKPSQTLSLTCAISGDSVSSNSAAWSWIRQSPGRGLEWLGIIYKRSKWYNSYAVSVKSRITINPDTSKNQFSLQLNSVTPEDTAVYYCARWHSDKHWGFDYWGQGTLVTVSS VL: DIVMTQSPLSLPVTPGEPASISCRSSQSLVFSDGNTYLNWYLQKPGQSPQLLIYKGSNRASGVPDRFSGSGSGTDFTLKISRVEAEDVGVYYCQQYDSYPLTFGQGTKVEIKR | – | – | 29.3 | 146
4B7 HC_S57R (Fab, V domains shown) VH: QVQLQQSGPGLVKPSQTLSLTCAISGDSVSSNSAAWSWIRQSPGRGLEWLGIIYKRRKWYNDYAVSVKSRITINPDTSKNQFSLQLNSVTPEDTAVYYCARWHSDKHWGFDYWGQGTLVTVSS VL: DIVMTQSPLSLPVTPGEPASISCRSSQSLVFSDGNTYLNWYLQKPGQSPQLLIYKGSNRASGVPDRFSGSGSGTDFTLKISRVEAEDVGVYYCQQYDSYPLTFGQGTKVEIKR | – | – | 2 | –
4B7 HC_G109A LC_D33R (Fab, V domains shown) VH: QVQLQQSGPGLVKPSQTLSLTCAISGDSVSSNSAAWSWIRQSPGRGLEWLGIIYKRSKWYNDYAVSVKSRITINPDTSKNQFSLQLNSVTPEDTAVYYCARWHSDKHWAFDYWGQGTLVTVSS VL: DIVMTQSPLSLPVTPGEPASISCRSSQSLVFSRGNTYLNWYLQKPGQSPQLLIYKGSNRASGVPDRFSGSGSGTDFTLKISRVEAEDVGVYYCQQYDSYPLTFGQGTKVEIKR | – | – | 3.8 | 8
